We go through two molecules from publication PMC5874619, “Enzymatic Preparation of 2,5-Furandicarboxylic Acid (FDCA)—A Substitute of Terephthalic Acid—By the Joined Action of Three Fungal Enzymes” (Microorganisms, 2018).

Holding throughout (assay): HPLC, varied substrate, Michaelis-Menten plot
The test system of one series is T1, PostAAO.
T1 construct: gene aao
In kind it is biochemical, Pleurotus ostreatus.

Substrate in series [1]: O=Cc1ccc(C=O)o1
In kind it is biochemical, Cyclocybe aegerita. The note with it: pH 6.0.

Substrate in series [2]: O=Cc1ccc(CO)o1
Type of series: biochemical, Cyclocybe aegerita. The note with it: pH 6.0.

Take `O=Cc1ccc(CO)o1` [HMF, 5-hydroxymethylfurfural]: the Km (in general, the substrate concentration at which the rate is half of its maximum) with PostAAO amounted to 7.2 mM.

B1: (Cyclocybe aegerita) (protein)
chain: EPGLPPGPLENSSAKLVNDEAHPWKPLRPGDIRGPCPGLNTLASHGYLPRNGVATPVQIINAVQEGLNFDNQAAVFATYAAHLVDGNLITDLLSIGRKTRLTGPDPPPPASVGGLNEHGTFEGDASMTRGDAFFGNNHDFNETLFEQLVDYSNRFGGGKYNLTVAGELRFKRIQDSIATNPNFSFVDFRFFTAYGETTFPANLFVDGRRDDGQLDMDAARSFFQFSRMPDDFFRAPSPRSGTGVEVVIQAHPMQPGRNVGKINSYTVDPTSSDFSTPCLMYEKFVNITVKSLYPNPTVQLRKALNTNLDFFFQGVAAGCTQVFPYGRD
Take B1: in series [1], the Km amounted to 0.82 mM; the kcat (usually the number of substrate molecules converted per active site and unit of time at saturation) is 29.2 s⁻¹; the kcat/Km (in general, the second-order rate constant that governs catalysis at low substrate concentration) was 35600 M⁻¹ s⁻¹. Moreover, in series [2], the Km was 6.07 mM, the kcat stood at 222 s⁻¹ and the kcat/Km was 36600 M⁻¹ s⁻¹.
